The nature of this data set: soluble fraction after stress (log2 fold change); higher = more stays soluble; pooled small domains, quantitative proteomics. The settings on record: stress: 50 degC. The method, boiled down: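 Pooled custom libraries of small protein domains were measured in a high-throughput format, with quantitative proteomics as the read-out. Each library was stressed at 50°C. Aggregation propensity is given as the base-two logarithm of the fold change in how much of each protein stays soluble after the stress. Higher values mean a larger share of the protein remains in solution.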
As to “HMEYMKQRLYDIIELFKRSFSPSFSEEEKKKLENVLQDDFLRKAYEQLSDEVFIEEKFREFDGY”, the “soluble fraction (log2)” value was -1.73.

Take “HMGGPTARQMEVLSLIAQGLPNKRIADELGIAERTVKLHITALLDSLGARNRTHLLVVARERGM”: the “soluble fraction (log2)” value was -2.21.

On to “HMGRGAAKGPLKELGLDPVTGRPLVVKDGKFGMYVTDGETNAGLRRGDLVEQLTLDRGMELLAERRARADQ”, for which the “soluble fraction (log2)” value is 0.203. In the case of “HMSISEFNYTEFNGLVEKGQVSEVTISGREIEGRLTSGESFKTYSPETDNSALVGDLLKNNVKINGKP”, the “soluble fraction (log2)” value is 0.12. As for “HMKLASIGDNIHTLRKNKGLTQSQLAGKLGVNVDTISNYEKGVSTPDFDIVEKLVNIFNVDAHSLLFK”, the figure is 0.127; as for “HMRVTEIDYGAFMKMIEEKNIGEVKVEDYEIVFTDKDNKNIYKTGIMDDPDLTQRLYNSGAVFA”, 0.0247; as for “HMFGGIEFGWSQLPDGRVEYIIQLDDQAIAALKNGRSLTSSLPPEVQNADRIRIQYGAGPVEKGLLLQ”, 0.0674.

For the sequence “HMNLGVIYSLKAEVRSEPNTFSTRLFEVHEGLKVSINQLENDWVEIELLDGKTGWISNDQIRLI”, the “soluble fraction (log2)” value was -2.12.

Consider “HMEMTDKEEELMRIFWNHGPMFVREIVELYPEPRPHFNTLSTFVRNLEQKGFVSHEAVGGSFRYYAV”, for which the “soluble fraction (log2)” value was -1.26. Regarding “HMLTPQEIGSRLKLVRQGLQLKQQEVAEIIGTSQLKISKIEQGATVTTPDFLKLLAFYSQSVSLDILF”, the “soluble fraction (log2)” value was -0.564. As to “HMSPPVIQQGQDVRLIYKGTGFAVSNEGKALNTAADGQVARARTGGGQTVSGIARPGGIIEIT”, the “soluble fraction (log2)” value came out at 0.308.

For “HMDYEVPEELQQKFEEFPRLKEAFYQLTPGRQHQYLYYFSQAKRSQTRYNRIDKYMNAILQGKGMK”, the “soluble fraction (log2)” value is -0.991. For the sequence “HMEGMSIYVTVNGDMVHLTGKMSYVFVDVFEHIDFDLSKPQGSGIVTKLNGRDAQYMEEIRSGDMIEIYWR”, the “soluble fraction (log2)” value is -0.133. “HMRRMAYLVGQRGLAMGDFISGTGQVRIGDTVWRAEAVEGELVRTGDTVVVEGAKMTTAIVRRVM”: the “soluble fraction (log2)” value is -0.351.

Consider “HMSMLGTEQRVLVLGPARKGEGFLMARTDNNRIVNFEGPLSLVDTMVRVKVTDVYPHSLGGQLL”, for which the “soluble fraction (log2)” value is -1.55. As for “HMVNHEERKRLIAEATWRTISHVGIEQASVRTIAKEAGLSLGALRYYFTTQEELLRFSMQLVQERV”, the figure is -0.0983.

With “HMDISKTLGKNPLLIIDNIEYRGKTLDEITAMTGVKRFENIDIYGSEEAMKTYGEKAKDGVIIAYTT”, the “soluble fraction (log2)” value turned out to be 0.0561. As to “HMQEIKPEPISDGRVWKEGMWATTPLGIEGQLLSDPDEKGMVQLGYGNMRININIQDLDPSR”, the “soluble fraction (log2)” value is -0.0705. Turning to “HMSGRSVSYSEFMSRVEAGQVSSVTLDGERVEVTGSDGSRYVTIAPSDATLTDKLVAKGVEVRADP”, the “soluble fraction (log2)” value came out at 0.102.

“HMTRQNTAVQQSDMAHHKASELTEGMSIVHSHFGRGTIISIETADDPRVTVDFSSEGRKTMLLRFAKFAIE”: the “soluble fraction (log2)” value was -0.118.

In the case of “HMKGIVFTEFLDLVEERFGLEMVDAIISQSKLESKGVYTSIGTYSFSELLQLLQNLKIQTGISIDNLLLI”, the “soluble fraction (log2)” value was -0.88. For “HMKDKSEKTKKLIFEAAFKIIREEGFSELSANKIAQVASVSKGVIFHHFSQMDDLYLFMLDTL”, the “soluble fraction (log2)” value was determined as 0.255. As for “HMSAEGPALADWVVRDAHSIGAKITNSVAQLLIDRVGHNQQLLHNELQKLALVQTDISAELVKTMSHY”, the figure is 0.0302; as for “HMNNMVNTLLKLLAEQDVLRGIVRRFTPSSVFVFLQNEEVEVELPLQGRSLAPGQLVELTQEGASVALKRL”, -0.647; as for “HMEFTFTLPRGYIDDTGMIHREGTMRLANAADEILPLKDPRVQQNPGYLTIILLARVITKLGSL”, 0.277.

For the sequence “HMSDSGLPLPRFVSLGDDRVNARAGPGFRFPINWVYLRKNFPVEVIDEFGHWRRIKDIDGIEGWIHLSML”, the “soluble fraction (log2)” value was -0.775. Regarding “HMKLNETIAEARKRKGLTQEQLAQKLYVTRQAVSRWERGEVVPGIDMLKLIAITLEEPIVHLL”, the “soluble fraction (log2)” value is -0.769. Turning to “HMSDPTDRLVLEAALKALGEEERQVVLLHAASGLKHREIARDLGLPLSTVLSRYSRALKKLQRYLTEEGVH”, the “soluble fraction (log2)” value was -0.77. As for “HMANSDEEVLNKISTKAPTFNELINKIKEFDDTKEINDIWLDVYRYYITDEEYKEIAKKVITGLTYTNQ”, the figure is -0.177.

Consider “HMTIHVMEIKSLLPIKILDESQHLVQSFSSKNPTSYNYRLIFSDKSKLENIKKTINENKDVESIEIRYA”, for which the “soluble fraction (log2)” value is -0.816. Turning to “HMDAVSTMIENLRVKTGKSLADWVGLAKGSGADKHGAMVGWLKSEHGLTHGYANLIAHETFRSAA”, the “soluble fraction (log2)” value amounted to 0.0392. In the case of “HMEIEYFDDEELDAYKGRKSDSYTDEEAAQFAEVLYTMRPSEVKDWTASLTLRGISMPDQIKDEAIMLME”, the “soluble fraction (log2)” value is -0.0466. Take “HMTTVSINTTGIITASTIRASSALYPPLYTTVQRDAGTFSAGAIIFNSTTSKLEFYDGTTWQSLPG”: the “soluble fraction (log2)” value is -0.106. Take “HMLEAMDSDEAAKVIEQIVNERADFVRSKGMGAIGPLMGPVMGALRGKVDGKQANELLTAAIKKLL”: the “soluble fraction (log2)” value worked out at 0.273. On to “HMEAYSAEAVRFRIKAMIESETVDDVMSDDKIVERLLADGVDIARRTVAKYREAMNIPSSVKRRRKLKGM”, for which the “soluble fraction (log2)” value was -1.53. In the case of “HMEVKSGFVHLTGAVKSPGVYPISIGMRLFEVIALAGGFTAKADRESVNLARTVTDGEQIIVSGSG”, the “soluble fraction (log2)” value was -1.7. “HMAVSNWQKLVSSIQTQLKILALYHGPEDGIYGPNTRSAIMLYEENIGLPVTGEPSRELLAHMLDQTD”: the “soluble fraction (log2)” value was -0.869. Consider “HMQSMEIDENEIPSIDKLSEYIEYFKRIYNALFDDKQLAITNIDVLERHFANNFNTLRFKMDE”, for which the “soluble fraction (log2)” value was -0.0595. As for “HMELEFLTEKQKEALILAVNRGYYDVDSEVTLKRLADELGIARSTYGEHLKRAESEALKMVVSDLLRD”, the figure is -0.382; as for “HMYIEKTAYINDTAVNVRKSATTDSDVIKVLALNTEITIIGEENDWYKVKSGNDIGYIAKRLVSDQKKE”, 0.0858. As for “HMNTAIDGLIEKVGMFAMEKKAISVDQVKENFSINGEQAESVIKQLETIGVLGKKNEDGTHTVM”, the figure is 0.0766. With “HMIVPPAIPFRALGIFGPRDRPIVTFEDGPRLINAREGDVLDGRFILRRVGRESVDFAFVGLPPEITRRIP”, the “soluble fraction (log2)” value was -0.466. As for “HMSQIDLQIGHKIKSKRRKLGISQADMAKKLYISPSYLNLIESGKRKINVDLLLKLSNELGIEMSDIS”, the figure is -0.478; as for “HMSMRIDTNTLNYYVQNAQISLSVLRTKINNLDQFLSGEKQPTFNQLSEIAKKINVPTGLLLLNKS”, -1.45; as for “HMAMSDFDALSNRISTLSQGRASAVRMKDGIVSLVLDIGGLSAEERKAMTAAIEGEGRGYPSVTQVRILET”, 0.0462. As for “HMNPSAFSEYSFELLQSALLKKKIDENLSNQTIARDAGVSEAFVQKVLTNNVKRPSVKNRVRMISYLGLD”, the figure is -1.22; as for “HMANYHDIAADLRSKINHGFYEEEKKLPKQSELAADYQTSRVTIQKALNILQMEGIIYGKKGTGTFIRDSY”, -0.214; as for “HMEENNIVIYITGAVKKEGIYEIKENSRISDAIEAAGGLLENANIKDINLAYIIEDGVKIYIPTNEEVNK”, -0.192. Turning to “HMNTEEVGSYLKKLRLEHSFTQKELAGKLYITHQAVSNWEKGKALPDIGILSQLGDIYGISIDNLLLK”, the “soluble fraction (log2)” value was -1.79. As for “HMNLLDYDFFEKMSSKEQEEIVEKVYIDFLNKSTGTNSPFYLKLFEKGKKSYIVNWLNENNF”, the “soluble fraction (log2)” value was -1.44. As for “HMEKIELKTVIPENLKKKRLDFALSELFPEHSRSRIQSWIKEGSVMVNSKNYRQRDLVDAGDVVEINTEQK”, the “soluble fraction (log2)” value is 0.236. As for “HMTPGPFLVYITGAVERPNVLVTLDYGSRVIDALNAAGGSRIDANLDLVNLAQRLVDGDQIHVPTLR”, the figure is -1.28. As for “HMAPASADQLIDQLNEKVKAKDDKGVAALLTAAQTKMAELAQKDPKEAQAYVAKLQQWMQSNSENIKAALK”, the figure is 0.157. As for “HMRRATLERLANNTAEKAIRYKRSLALEPMNPQERRIIHAALQEVEGVSTHSVGTEPNRKVIVVPDGV”, the figure is -0.0677. In the case of “HMFAQDKKFITYKVKEGETVQSISKALSITPYDLLKLNPDIKDNVSQDDLLIIPNKQYDPLGDI”, the “soluble fraction (log2)” value stood at 0.144. Consider “HMTTLTPIGKMKGEIDGDFEAFYLAVDKDGQVYLNRDPDYSENRYEKSRGWELVTREQLAVYEKELHFIP”, for which the “soluble fraction (log2)” value was -0.406. With “HMRDAKSQLQEALQKSGRLPEYELVSVEGPPHAPVFTYRVRIDGAVVGEGQGASKQAAQQAAAQSALKSG”, the “soluble fraction (log2)” value worked out at 0.145.

Consider “HMVSKEELANSIYENKTADELGNIVLRKGKYSGEMLRTIYVKDIGYLEWHSKQSYEYSNAVKWYLKKLE”, for which the “soluble fraction (log2)” value is -1.21.

Regarding “HMESAQLIINVAGKVSNPGVYQLPQGSRVVDAIEAAGKQLKGVDISDINLARVLVDGEQILVGGV”, the “soluble fraction (log2)” value amounted to 0.247. Regarding “HMKQVTVGGTINAGGARIYADSYGNGGGRQTFGSDPIYTVLQERNGYILTRWHKLSSGYTGWFKKSDVSA”, the “soluble fraction (log2)” value is -0.298. With “HMTEELLNQRKETMLALLNDPTYVPMKLKELAMLLNLSRDQRDELREVMESLEQDGKVILTKRGKYKIP”, the “soluble fraction (log2)” value is -0.269.

As for “HMIKEGDLVFIWNPKKGDSFLIKVQPGQSQGTHFGQIKHSEIMEHNYGEGIRTPKGQVYYLLRPTLGEFTR”, the “soluble fraction (log2)” value was -1.14. As for “HMVFADRLRALRKKSGLTQDEFSKQTGIGRSAVGMYESGKREPNYTTLSKVARFYHVSTDYLLGRTDTP”, the figure is -1.04; as for “HMTTSNPMNVTSAEAAFDNGTDRLNAFISGRTTSEERSTYFPLFVRETKEDFLRAVGRFNEYIANHG”, 0.0364. For “HMRKIGDVLRLHAGGLSKRRIAVSLNIGRTAVGDYISRARRAGLGWPLPEDLSEEALERLLFPPP”, the “soluble fraction (log2)” value was -2.59. For the sequence “HMQTLQNNLKQIRSRVGLTQGELASRAGISRQAYSTLESGNANPSTEVSLRLAEALNERIESLFFLANQ”, the “soluble fraction (log2)” value was -0.275. For “HMTLDEFTDLMNLFKTGHIEQKPVILYGYNYWTSLKSWFEFNNMKFPEMYIDGIINTVDEFKILYNKIF”, the “soluble fraction (log2)” value was -0.982. As for “HMELLTYREMDVLNLLDQRLTNKEIAHALGISTETVRQHTVNLFRKLNVDNRRQAIVVARSLGYIGTPT”, the figure is -1.2; as for “HMELNESVLKALYEKFREMSGSKGFITEDEVIIQLEKENPDITPDQQAEIFKYLYDTPLQIY”, -0.127.
